Measured values as given in US20240084003A1 (SIMCERE ZAIMING PHARMACEUTICAL, published 2024).
Substitutions are numbered along the chain they refer to.

T1: monkey CD22 on HEK293T-monkey CD22 cells (monkey)
T1 construct: full-length entry expressed on stably transfected HEK293T cells
T1 chain: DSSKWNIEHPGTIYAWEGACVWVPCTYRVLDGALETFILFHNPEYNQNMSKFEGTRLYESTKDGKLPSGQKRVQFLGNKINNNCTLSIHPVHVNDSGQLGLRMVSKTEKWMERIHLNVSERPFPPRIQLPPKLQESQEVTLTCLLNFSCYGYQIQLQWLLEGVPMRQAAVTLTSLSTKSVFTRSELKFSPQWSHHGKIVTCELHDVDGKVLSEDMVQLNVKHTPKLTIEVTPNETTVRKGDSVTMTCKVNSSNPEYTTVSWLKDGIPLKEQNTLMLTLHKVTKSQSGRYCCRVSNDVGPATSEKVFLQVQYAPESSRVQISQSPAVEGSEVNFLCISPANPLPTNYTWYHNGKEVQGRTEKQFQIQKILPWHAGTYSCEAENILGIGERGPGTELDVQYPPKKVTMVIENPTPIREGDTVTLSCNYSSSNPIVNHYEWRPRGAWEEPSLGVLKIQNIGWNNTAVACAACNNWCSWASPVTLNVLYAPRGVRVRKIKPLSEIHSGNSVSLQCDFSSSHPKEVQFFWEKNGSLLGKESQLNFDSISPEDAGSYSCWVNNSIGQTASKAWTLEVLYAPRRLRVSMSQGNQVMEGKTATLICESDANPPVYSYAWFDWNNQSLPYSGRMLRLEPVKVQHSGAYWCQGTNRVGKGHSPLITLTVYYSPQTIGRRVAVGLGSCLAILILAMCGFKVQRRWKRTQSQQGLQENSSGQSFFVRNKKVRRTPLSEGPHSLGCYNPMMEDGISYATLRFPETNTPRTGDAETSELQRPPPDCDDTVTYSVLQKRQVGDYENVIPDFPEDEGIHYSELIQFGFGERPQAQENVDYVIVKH

T2: human CD22 domain5-7-His (human, UniProt P20273 414-687)
T2 construct: also called hCD22 domain5-7-His; not shown: His tag
T2 sequence: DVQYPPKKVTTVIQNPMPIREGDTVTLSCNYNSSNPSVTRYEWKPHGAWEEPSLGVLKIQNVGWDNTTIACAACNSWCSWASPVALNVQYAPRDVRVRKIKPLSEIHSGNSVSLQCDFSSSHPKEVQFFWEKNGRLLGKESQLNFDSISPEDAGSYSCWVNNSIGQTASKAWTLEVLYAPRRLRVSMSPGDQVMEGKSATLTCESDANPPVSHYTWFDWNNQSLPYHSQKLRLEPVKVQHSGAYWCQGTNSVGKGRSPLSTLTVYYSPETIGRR

T3: human CD22-ECD-His protein (human, UniProt P20273 20-687)
T3 construct: Made in house in HEK293E; also called hCD22-ECD-His; recombinant human CD22-ECD His protein; not shown: His tag
T3 sequence: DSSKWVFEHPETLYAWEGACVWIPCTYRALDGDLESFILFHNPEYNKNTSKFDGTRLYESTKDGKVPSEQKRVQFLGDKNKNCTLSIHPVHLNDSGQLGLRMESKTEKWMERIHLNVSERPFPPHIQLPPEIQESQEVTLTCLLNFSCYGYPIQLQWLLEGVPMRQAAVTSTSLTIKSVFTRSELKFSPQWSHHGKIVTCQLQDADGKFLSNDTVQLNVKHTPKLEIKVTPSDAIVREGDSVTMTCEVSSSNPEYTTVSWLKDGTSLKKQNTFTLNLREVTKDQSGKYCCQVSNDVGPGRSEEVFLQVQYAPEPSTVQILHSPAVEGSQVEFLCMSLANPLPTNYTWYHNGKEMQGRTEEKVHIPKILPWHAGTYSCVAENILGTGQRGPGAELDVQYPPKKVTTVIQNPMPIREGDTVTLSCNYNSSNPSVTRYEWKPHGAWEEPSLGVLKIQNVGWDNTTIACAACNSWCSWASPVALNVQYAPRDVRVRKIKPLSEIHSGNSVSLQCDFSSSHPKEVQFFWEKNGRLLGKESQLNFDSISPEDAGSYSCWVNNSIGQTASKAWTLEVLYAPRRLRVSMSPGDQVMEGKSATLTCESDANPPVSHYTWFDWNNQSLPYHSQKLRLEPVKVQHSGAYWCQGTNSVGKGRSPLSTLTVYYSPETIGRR

B1: F2.121.9 (antibody, human IgG1, lambda, V domains shown)
VH: EVQLVESGGGLVKPGGSLKLSCAASGFTFSDYVMSWIRQTPEKRLEWVATISDAGSYTFYPDNLKGRFTISRDNAKNNLYLQMNHLTSEDTAFYYCAIIYFGNYGGYWGQGTLVTVSV
VL: QAVVTQESALTTSPGGTVVLTCRSNTGAVTTSNYANWVQEKPDHLFTGLIGGTSNRAPGVPVRFSGSLIGDKAALTITGAQTEDDAMYFCALWYSTHWVFGGGTKLTVLG
notes: human-murine chimeric IgG1 lambda
B2: HA22-hIgG1 (antibody, V domains shown)
VH: EVQLVESGGGLVKPGGSLKLSCAASGFAFSIYDMSWVRQTPEKCLEWVAYISSGGGTTYYPDTVKGRFTISRDNAKNTLYLQMSSLKSEDTAMYYCARHSGYGTHWGVLFAYWGQGTLVTVSA
VL: DIQMTQTTSSLSASLGDRVTISCRASQDISNYLNWYQQKPDGTVKLLIYYTSILHSGVPSRFSGSGSGTDYSLTISNLEQEDFATYFCQQGNTLPWTFGCGTKLEIKR
B3: F2.70.2 (antibody, human IgG1, lambda, V domains shown)
VH: EVQLVESGGGLVKPGGSLKLSCAASGFTFSDYGMNWFRQAPEKGLEWVAYISRGSHTIYYADTVKGRFTISRDNAKNTLFLQMTSLRSNDTAMYYCVRMAGYYAMDYWGQGTSVTVSS
VL: QLVLTQSSSASFSLGASAKLTCTLSSQHSSYIIEWYQQQPLKPPKYVMELKKDGSHSTGDGIPDRFSGSSSGADRYLSISNIQPEDEAIYICGVGDTIKEQFVYVFGGGTKVTVLG
notes: as for B1
B4: F2.173.9 (antibody, human IgG1, lambda, V domains shown)
VH: EVQLVESGGDLVKPGESLKLSCEASGFTFSNYAMSWVRQTPDRRLEWVATISSIGSFTYYSDSVKGRFTISRDNVKSTLHLQMNNLKSGDTAIYFCARLGVYFDSWGQGTTLTVSS
VL: B3 VL with S30T, I32T, L41H, Y46F, L50I, S57Y, A88T, G95S, T97M, E100D
notes: as for B1
B5: F2.104.10 (antibody, human IgG1, lambda, V domains shown)
VH: B3 VH with L11F, K76E, V114L
VL: B3 VL with L50V, P84S
notes: as for B1
B6: F2.55.1 (antibody, human IgG1, lambda, V domains shown)
VH: QVTLKESGPGILQPSQTLSLTCSFSGFSLSTFPLGVGWIRQPSGKGLEWLAHVWWNDDDYYNPALKSRLTISKDTSNTRVFLSVASVDTAETATYYCARLNWDRWYFDVWGTGTTVTVSS
VL: QLVLTQSSSASFSLGASAKLTCTLSSQHSAYTVEWYQQQPLKPPKYVMELKKDGSHSTGDGIPDRFSGSSSGADRYLSISNIQPEDEAIYICGVGDTVKEQFVFGGGTKVTVLG
notes: human-murine chimeric IgG1 lambda; VL name legible
B7: F2.205.9 (antibody, human IgG1, lambda, V domains shown)
VH: QVTLKESGPGILQPSQTLSLTCSFSGFSLSTSGMGVGWIRQPSGKGLEWLAHIWWDDDEYYNPALKSRLTISKDTSKNQVFLKIANVDTADTATYYCARISIPYGYYDWFFDVWGTGTTVTVSA
VL: QAVVTQESALTTSPGETVTLTCRSSTGAVTTRNYANWVQEKPDHLFTGLIGGTNNRAPGVPARFSGSLIGDKAALTITGAQTEDEAIYFCALWYSNHFIFGSGTKVTVLG
notes: as for B6
B8: F2.151.13 (antibody, human IgG1, lambda, V domains shown)
VH: QVHLQQPGTELMKPGASVKLSCKATGYTFRDYWLEWVKQRPGHGLEWIGEILPGSGNAYYNEKFKGKATFTADTSSNTAYMQLSSLTTEDSAIYYCARVYSNWYFDAWGKGTTVTVSS
VL: B7 VL with R32S, R56Q, T78S, Y94F, F98W, I99V, S102G, V106L
notes: as for B1
B9: F1.60.9 (antibody, human IgG1, kappa, V domains shown)
VH: QVQLKESGPGLVAPSQSLSITCTVSGLSLNNYGVSWVRQPPGKGLEWLGVIWGDGSTNYHSALISRLSISKDNSKSQVFLKLNSLHTDDTATYYCAINWGDYWGQGTTLIVSS
VL: DIKMTQSPSSMNASLGERVTITCKASQDINSYLSWFQQKPGKSPKILIYRANRLIDGVPSRFSGSGSGQDYSLTISSLEYEDMGIYYCLQYGVFPLTFGAGTKLELKR
notes: Human-murine chimeric IgG1, kappa
B10: F1.257.3 (antibody, human IgG1, kappa, V domains shown)
VH: QVQLQQSGPELARPGASVKLSCKASGYTFTSYGISWVKQRTGQDLEWIGEIYPKLGTTYYNEKFKDKATLTTDRSSSTAYMALRSLTSEDSAVYFCACPHYYATRGGDYWGQGTTLTVSS
VL: EIVLTQSPATLSVTPGDSVTFSCRASQSISNHLHWYQQKSHESPRLLIRYASQSISGIPSRFSGSGSGTDFTLSLSSVETEDFGVYFCQQSHSWPYTFGGGTKLEIAR
notes: human-murine chimeric IgG1 kappa; VL name legible
B11: F1.245.2 (antibody, human IgG1, kappa, V domains shown)
VH: EVQLQQSGAELVKPGASVKLSCTGSGFNIKDYYIHWVKQRTEQGLEWMGRIDPEDGETEYAPKFQDEATITSDTSSNTAYLQLSSLTYEDTAVYYCAREAAGYFYRGSSYGYFDVWGTGTTVTVSS
VL: DFQMTQTTSFLSASLGDRVTISCSASQDISNYLNWYQQKPDGTVKLLIYYTSSLHSGVPSRFSGSGSGTDYSLTISNLEPEDIATYYCQQYSMLPYTFGGGTKLEMER
notes: human-murine chimeric IgG1 kappa
B12: F1.60.9 (antibody, human IgG1, kappa, V domains shown)
VH: B9 VH
VL: B9 VL
notes: as for B11

Biological target: T1, monkey CD22 on HEK293T-monkey CD22 cells
Assay: FACS, HEK293T-monkey CD22 cells
Protocol: (§1) For suspension cell Raji, the medium supernatant was directly centrifuged and discarded, and the cell pellet was washed 2 times with PBS. After counting the cells in the previous step, the cell pellet was resuspended with [PBS+2% (w/w) BSA] blocking solution to 2×10⁶ cells/ml, and added to a 96-well FACS reaction plate at 50 μl/well, and then the chimeric antibody test sample was added at 50 μl/well, and incubated on ice for 2 hours. The mixture was centrifuged and washed 3 times with PBS buffer, Alexa Flour 488-labeled secondary antibody (purchased from Invitrogen, catalog number: A-11013) was added at 50 μl/well, and incubated on ice for 1 hour. The obtained mixture was centrifuged and washed 5 times with PBS, and FACS (FACS Canto™, purchased from BD Company) was used for detection and result analysis. Data analysis was performed by software (CellQuest) to obtain the mean fluorescence density (MFI)of the cells. And then software (GraphPad Prism8) was used for analysis, data fitting, and EC50 value calculation. […] The same method was used to detect the binding of the chimeric antibodies to endogenous CD22-negative cell MoLT4 cells (purchased from ATCC, CRL-1582) and CHO-K1 cells.
(§2) HEK293T-monkey CD22 cells were subjected to FACS detection and data analysis according to the method in Example 5.2.
For B1, the EC50 was 0.97 nM and the “Maximum mean fluorescence intensity” value was 19900 MFI. For B2, the EC50 was 1.59 nM and the “Maximum mean fluorescence intensity” value was 31200 MFI. In the case of B3, the “Maximum mean fluorescence intensity” value is reported as 409 MFI. In the case of B4, the EC50 is reported as 2.1 nM and the “Maximum mean fluorescence intensity” value is reported as 22700 MFI. For B5, the “Maximum mean fluorescence intensity” value was 251 MFI. With B6 the EC50 was 34.7 nM and the “Maximum mean fluorescence intensity” value was 5760 MFI. For B7, the EC50 was 0.4 nM and the “Maximum mean fluorescence intensity” value was 25400 MFI. For B8, the EC50 was 1.26 nM and the “Maximum mean fluorescence intensity” value was 30500 MFI.

These binders were tested against T2, human CD22 domain5-7-His (assay: ELISA, human CD22 domain5-7-His coated).
B9 was tested, and the “EC50 (read off the curve)” value was roughly 0.1 nM.

These binders were tested against T3, human CD22-ECD-His protein (assay: ELISA, Ab 0.00001 nM).
Outline: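 Plates were coated overnight at 4 °C with human CD22-ECD-His at 2 μg/mL in PBS and blocked with PBS + 2% BSA for 2 h at room temperature. Chimeric antibodies were bound for 2 h at 37 °C, then HRP secondary for 2 h at 37 °C; TMB developed 30 min, stopped with 1.0 N HCl.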
Binder B9 has an OD450 of 0.09 OD450.

Biological target: T1, monkey CD22 on HEK293T-monkey CD22 cells
Assay: FACS, HEK293T-monkey CD22 cells
Remark: another data set of the same source
Protocol: as §1, §2
With B2 the EC50 was 0.91 nM and the “Maximum mean fluorescence intensity” value was 17100 MFI. B10 was tested, and the “Maximum mean fluorescence intensity” value was 147 MFI. With B11 the “Maximum mean fluorescence intensity” value was 124 MFI. In the case of B12, the “Maximum mean fluorescence intensity” value is reported as 531 MFI.

Biological target: T1, monkey CD22 on HEK293T-monkey CD22 cells
Assay: FACS, HEK293T-monkey CD22 cells, EC50 column
Protocol: as §1, §2
B3: no binding. B5: no binding. B10: no binding. B11: no binding. B12: no binding.
